Source: US20250333760A1, “TEMPERATURE-SENSITIVE NEGATIVE-STRAND RNA VIRUS OR VIRUS VECTOR AND RNA GENOME THEREOF” (REPLI-TECH CO., LTD., priority 2021, published 2025)

Tested on: HeLa cells
Test: Relative fluorescence intensity of EmGFP having degron (DD tag and mutants) added, expressed from SeV in HeLa cells
Assay type: cell-based
Conditions: for Relative fluorescence intensity of EmGFP having degron added thereto, Shield1: 1 μM of Shield-1; for Relative fluorescence intensity of EmGFP having degron added thereto, Shield1 / Relative fluorescence intensity of EmGFP having degron added thereto, dTAG-13 / Relative fluorescence intensity of EmGFP having degron added thereto, (—): 3 days after infection, MOI=10; for Relative fluorescence intensity of EmGFP having degron added thereto, dTAG-13: 5 μM of dTAG-13; for Relative fluorescence intensity of EmGFP having degron added thereto, (—): no Shield-1 or dTAG-13; for Shield1/(—) / Shield1/dTAG-13: ratio of relative fluorescence intensities
Description: The addition of a proteolytic tag (degron) to a P protein can facilitate the elimination of a SeV. A DD tag is a type of proteolytic tag (see, for example, US 2009/0215169 A). The DD tag (see SEQ ID NO: 18) is a protein of 107 amino acids in length, obtained by introducing F36V and L106P into FKBP12. Adding a low molecular weight compound, Shield-1 provides stabilization, and adding dTAG-13 also promotes degradation of the protein fused with the tag. In the present Example, a DD mutant (DDm; see SEQ ID NO: 19) having 11 mutations (4I, 18K, 36L, 501, 57K, 59F, 63A, 68L, 90V, 981, and 105R) in a DD tag was constructed. In the present Example, in order to investigate the proteolysis-promoting effect of the DDm, the DD tag and its mutants (including the DDm) were added to EmGFP at its C-terminal and loaded at the + position of the SeV vector (having the above mutation described in WO 2003/025570). HeLa cells were infected with the resulting SeV (MOI=10). On the day after infection, 1 μM of Shield-1 or 5 μM of dTAG-13 was added thereto, and the fluorescence from the cell was observed 3 days after infection. When a DDrs tag having the amino acid sequence set forth in SEQ ID NO: 28 was constructed and added to EmGFP at its C-terminal, the effect of stabilizing EmGFP by Sheild-1 was not obtained and the fluorescence intensity was only about 20% of that of a DD-tagged EmGFP (FIG. 8).

B1: DDm (protein)
chain: GVQIETISPGDGRTFPKKGQTCVVHYTGMLEDGKKLDSSRDRNKPFKFMIGKQEVIKGFEEGAAQMSLGQRAKLTISPDYAYGATGHPGVIPPHATLIFDVELLRPE
In the case of B1, the “Relative fluorescence intensity of EmGFP having degron added thereto, Shield1” value (37° C.) is reported as 140.4%, the “Relative fluorescence intensity of EmGFP having degron added thereto, dTAG-13” value (37° C.) is reported as 0.478% and the “Relative fluorescence intensity of EmGFP having degron added thereto, (—)” value (37° C.) is reported as 15.0%. For the same molecule, the “Shield1/(—)” value (37° C.) was 9.39, the Shield1/dTAG-13 (37° C.) was 293.9 and the “Relative fluorescence intensity of EmGFP having degron added thereto, Shield1” value (38.5° C.) was 153%. For the same molecule, the “Relative fluorescence intensity of EmGFP having degron added thereto, dTAG-13” value (38.5° C.) was 0.05%, the “Relative fluorescence intensity of EmGFP having degron added thereto, (—)” value (38.5° C.) was 2.5% and the “Shield1/(—)” value (38.5° C.) was 61.47. For the same molecule, the Shield1/dTAG-13 (38.5° C.) was 3181.7 and the “ratio of Shield1/dTAG-13 (in words)” value (Tables 6 and 7, 37° C. and 38.5° C.) was “significantly improved”.
